tested on: MS2 coat protein; assay: apparent KD of MS2 coat protein; higher = weaker reporter binding; details: Eterna round: R107; input ligand: theophylline 20 uM
Experimental: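 RNA-MaP round R107: designed RNA switches with theophylline, tryptophan, arginine or FMN aptamers are transcribed on-chip within common flanks. They are titrated with SNAP-549-labelled MS2 coat protein in RNA-MaP buffer (100 mM Tris pH 7.5, 80 mM KCl, 4 mM MgCl2), without ligand or with the indicated ligand. Median apparent KD per design.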

Row | Sequence | apparent KD of MS2 coat protein [nM]
1 | AUAAGGUAUCUGCUUCAUGGGUGAGCAGAUACCAGCUAGGAAACUAGCCCUUGGCAGCUGCAACAUGAGGAUCACCCAUGUAAUA [(T)'-(M)'-(T1)-(T2)-(M1)-(M2)_Design2] | 149
2 | AUAAAUGGGUUAAUUAGUUUUAGGUCCAGUCGAGGACCGGUACGGCCGCCACUCGUCCCAAGUUACAUGAGGAUCACCCAUGUUA [JR_ExcTryptoA_Sub014] | 52.5
3 | CAUUAAUUACGAAGGAGCGUCGAAAAUGGGUAAACAUGAGGAUCACCCAUGUAAAGGGAACGACAGGUAGGUCGCGUAAUUAAUG [AstromonsSSArgB#2] | 169
4 | GUAUUACGGACGGCCGCCACUGUGGGACAUGAGGAUCACCCAUGUGGCGCUACUUACAAGUGCGACAGGACCGGGUCAUGGUUUG [theeternabot_sameState_MS2_Trp_B_1] | 732
5 | ACUUGUGAGUCGGCCGCCACUCACCGGUAGUGUCACUCGUUCACAAACAUGAGGAUCACCCAUGUGAGGACCGGGACAGUCGGGU [theeternabot_exclusion_MS2_Trp_B_28] | 25.4
6 | AACAUACAAUUUUAGGUGGAUAUAAGGCGGCGAGGACCGGUACGGCCGCCACUCGCGUACAUGAGGAUCACCCAUGUCUGAAACU [Same State - Tryptophan A (Freestyle 5)] | 28.1
7 | AUCUUGUACCGUAAUACUUUACGUUGGGAUACCAGCAUGGACCCAUGCCCUUGGCAGCUUUACAUGAGGAUCACCCAUGUUGUAG [SSTheo A #28] | 42.2
8 | UGUCAGCGAAAGUUGACAUGUCUUGCUGGUCGAGGACCGGUACGGCCGCCACUCGAUCUCUCGCACAUGAGGAUCACCCAUGUUG [SS Tryp A #23] | 14.4
9 | AAUAUUUGCCACAUGAGGAUCACCCAUGUGCGAGGACCGGUACGGCCGCCACUCGGUCGGUGGUUAAUGAAGAUAAACAAUAAUG [XTryp A #11] | 15.7
10 | GGCUAGUGCAUCGAUACCAGCUACAUGAGGAUCACCCAUGUAGGAAGGGUGGCACUCGAUAGCCCUUGGCAGCGAACACCUCCGG [Cebebion] | 31.2
11 | CCUCAUGAACAUGAGGAUCACCCAUGUACACGAGGACCGGUACGGCCGCCACUCGAAUAAGCUAAAUAUAAAUAAUAAUAAUAGC [5' end split MS2] | 18.3
12 | AAUAAUAAGGCGGCCGCCACUACACAUGAGGAUCACCCAUGUCUCGCGGGCUUGCGUUGGGAAUGUAGGACCGGGCCAAUAAUAA [Exclusion - Tryptophan B (Freestyle 10)] | 25.8
13 | AGGACCAGGAUCCUCAUGUAACUGGUCCAACGAGGACCGGUACGGCCGCCACUCGAAUAAACAUGAGGAUCACCCAUGUAAUAAU [T''-M-T'-T-MS2] | 169
14 | GGGCCCGGGCGCGAGCCCGGGCCCAUUGAUACCAGUGAUAUAUGACGCCCUUGGCAGCGAAUCCUAACAUGAGGAUCACCCAUGU [5.H] | 58.9
15 | GGACUAACCAGAAGGAGCGACACGCAGAAACUGCAAAUUCCUCCGCACGAGGAUCACCCGUGUCAGGUAGGUCGCUGGUUAGUCG [ArgBX 28] | 33.2

same assay, conditions: Eterna round: R107; input ligand: theophylline 2 mM

Row | Sequence | apparent KD of MS2 coat protein [nM]
16 | AGGACAUGAGGAUCACCCAUGUACUCUGAAGGAGCGUCGAGAACGACAGGUAGGUCGCAGGCUAAGGAAGGUGAUGCUCAAGAAG [Exclusion Arginine A GF7] | 24.8
17 | GGUGGCUGGACUGAUACCAGCCACCACCGAUAGACCACAUGAGGAUCACCCAUGUUGGGUGGCCCUUGGCAGCAGUCCAGCUGCC [#1 Same State - Theophylline B Attempt #10 (HarryS)] | 2990
18 | GGUUACUCUACGGCCGCCACUGAUUAUUUAUAGUCCUGUACAUAAACAUGAGGAUCACCCAUGUACAGGACCGGGUAGUGUAACC [Tryptophan B 12] | 40.6
19 | UCAGUGCAGGGAAGGAGCGGGUACAUGAGGAUCACCCAUGUGCAAGUGGUGAGCGUCCGUGCCCAGGUAGGUCGCCCAGCCUGGU [Atarteedon] | 198
20 | UAUAAACAGCCUGGUUACUCGUCGCGCUUGCGAGGACCGGUACGGCCGCCACUCGACCCAUCACAUGAGGAUCACCCAUGUCCCA [theeternabot_exclusion_MS2_Trp_A_25] | 38.6
21 | UGUAACAUGAGGAUCACCCAUGUGAGUGAUACCAGACUAGUGUUAGUCCCUUGGCAGCACGCUGGACGAAUGUGUAGUCUAUGCG [Same State - Theophylline A (Freestyle 19)] | 58.3
22 | GGGCCCGGGCGCGAGCCCGGGCCCAUUGAUACCAGUGAUAGAGAGCGCCCUUGGCAGCGAAUCCUAACAUGAGGAUCACCCAUGU [5.K] | 83.9
23 | GGGUACAUCGCGGCCGCCACUUAUGUAAAUACAUGAGGAUCACCCAUGUCGAUGGAGACAUCGGAGAGGACCGGGUGAUGUACCG | 48
24 | CGUCGAAACUGAAGGAGCGAGAUGACAACAUUGGGUCUAACAUGAGGAUCACCCAUGUAAUCUCAGGUAGGUCGCGGUGUCAACA [Exclusion Arginine B GF18] | 120
25 | UGUACCUGUAUCUGGUCCAUAGUAUAACCUCGAGGACCGGUACGGCCGCCACUCGUCGGACCACAUGAGGAUCACCCAUGUACCG [theeternabot_exclusion_MS2_Trp_A_23] | 14.1
26 | CACAUGAGGAUCACCCAUGUCUGAACUGAAGGAGCGCUAAACAAGGCAGGUAGGUCGCGGAAUCUUGUGUGCAUAUGCACACGGG [9.S] | 22.7
27 | UUUGGCGGCGAUCUGGGUUUCCCAGAUCGGCGAGGACCGGUACGGCCGCCACUCGUGUUUCUUUGACAUGAGGAUCACCCAUGUA [whbob_SS_trypto A_f4] | 93.9
28 | AUAAGGUAUCUGCUUCAUGGGUGAGCAGAUACCAGCUAGGAAACUAGCCCUUGGCAGCUGCAACAUGAGGAUCACCCAUGUAAUA [(T)'-(M)'-(T1)-(T2)-(M1)-(M2)_Design2] | 964
29 | AUAAAUGGGUUAAUUAGUUUUAGGUCCAGUCGAGGACCGGUACGGCCGCCACUCGUCCCAAGUUACAUGAGGAUCACCCAUGUUA [JR_ExcTryptoA_Sub014] | 91.9
30 | CAUUAAUUACGAAGGAGCGUCGAAAAUGGGUAAACAUGAGGAUCACCCAUGUAAAGGGAACGACAGGUAGGUCGCGUAAUUAAUG [AstromonsSSArgB#2] | 230
31 | GUAUUACGGACGGCCGCCACUGUGGGACAUGAGGAUCACCCAUGUGGCGCUACUUACAAGUGCGACAGGACCGGGUCAUGGUUUG [theeternabot_sameState_MS2_Trp_B_1] | 783
32 | ACUUGUGAGUCGGCCGCCACUCACCGGUAGUGUCACUCGUUCACAAACAUGAGGAUCACCCAUGUGAGGACCGGGACAGUCGGGU [theeternabot_exclusion_MS2_Trp_B_28] | 16.3
33 | AACAUACAAUUUUAGGUGGAUAUAAGGCGGCGAGGACCGGUACGGCCGCCACUCGCGUACAUGAGGAUCACCCAUGUCUGAAACU [Same State - Tryptophan A (Freestyle 5)] | 28.9
34 | UGUCAGCGAAAGUUGACAUGUCUUGCUGGUCGAGGACCGGUACGGCCGCCACUCGAUCUCUCGCACAUGAGGAUCACCCAUGUUG [SS Tryp A #23] | 13.9
35 | AAUAUUUGCCACAUGAGGAUCACCCAUGUGCGAGGACCGGUACGGCCGCCACUCGGUCGGUGGUUAAUGAAGAUAAACAAUAAUG [XTryp A #11] | 11.5
36 | GGCUAGUGCAUCGAUACCAGCUACAUGAGGAUCACCCAUGUAGGAAGGGUGGCACUCGAUAGCCCUUGGCAGCGAACACCUCCGG [Cebebion] | 28.1
37 | CCUCAUGAACAUGAGGAUCACCCAUGUACACGAGGACCGGUACGGCCGCCACUCGAAUAAGCUAAAUAUAAAUAAUAAUAAUAGC [5' end split MS2] | 16.8
38 | AAUAAUAAGGCGGCCGCCACUACACAUGAGGAUCACCCAUGUCUCGCGGGCUUGCGUUGGGAAUGUAGGACCGGGCCAAUAAUAA [Exclusion - Tryptophan B (Freestyle 10)] | 27.9
39 | AGGACCAGGAUCCUCAUGUAACUGGUCCAACGAGGACCGGUACGGCCGCCACUCGAAUAAACAUGAGGAUCACCCAUGUAAUAAU [T''-M-T'-T-MS2] | 313
40 | GGGCCCGGGCGCGAGCCCGGGCCCAUUGAUACCAGUGAUAUAUGACGCCCUUGGCAGCGAAUCCUAACAUGAGGAUCACCCAUGU [5.H] | 81.6
41 | GGACUAACCAGAAGGAGCGACACGCAGAAACUGCAAAUUCCUCCGCACGAGGAUCACCCGUGUCAGGUAGGUCGCUGGUUAGUCG [ArgBX 28] | 23.5

same assay, conditions: Eterna round: R107; input ligand: tryptophan 2.4 mM

Row | Sequence | apparent KD of MS2 coat protein [nM]
42 | AGGACAUGAGGAUCACCCAUGUACUCUGAAGGAGCGUCGAGAACGACAGGUAGGUCGCAGGCUAAGGAAGGUGAUGCUCAAGAAG [Exclusion Arginine A GF7] | 15.2
43 | GGUGGCUGGACUGAUACCAGCCACCACCGAUAGACCACAUGAGGAUCACCCAUGUUGGGUGGCCCUUGGCAGCAGUCCAGCUGCC [#1 Same State - Theophylline B Attempt #10 (HarryS)] | 873
44 | UCAGUGCAGGGAAGGAGCGGGUACAUGAGGAUCACCCAUGUGCAAGUGGUGAGCGUCCGUGCCCAGGUAGGUCGCCCAGCCUGGU [Atarteedon] | 108
45 | AUUUUUCUAUCAGAUACCAGACAAUUUUAGACAUGAGGAUCACCCAUGUAUAGGGUGUUCGUCCCUUGGCAGCUGUUAAGUUUAA [JR_SSTheophyB_Sub004] | 182
46 | UGUAACAUGAGGAUCACCCAUGUGAGUGAUACCAGACUAGUGUUAGUCCCUUGGCAGCACGCUGGACGAAUGUGUAGUCUAUGCG [Same State - Theophylline A (Freestyle 19)] | 63.9
47 | ACAUGAGGAUCACCCAUGUGCCGUCUUGAUACCAGACGCGAAGUAGUCCCUUGGCAGCAAAUACGUGAGGGUCGCGCAUGUGUAA [wzxmullin] | 24.9
48 | GGGCCCGGGCGCGAGCCCGGGCCCAUUGAUACCAGUGAUAGAGAGCGCCCUUGGCAGCGAAUCCUAACAUGAGGAUCACCCAUGU [5.K] | 56.6
49 | CGUCGAAACUGAAGGAGCGAGAUGACAACAUUGGGUCUAACAUGAGGAUCACCCAUGUAAUCUCAGGUAGGUCGCGGUGUCAACA [Exclusion Arginine B GF18] | 63.9
50 | CACAUGAGGAUCACCCAUGUCUGAACUGAAGGAGCGCUAAACAAGGCAGGUAGGUCGCGGAAUCUUGUGUGCAUAUGCACACGGG [9.S] | 19.9
51 | UUUGGCGGCGAUCUGGGUUUCCCAGAUCGGCGAGGACCGGUACGGCCGCCACUCGUGUUUCUUUGACAUGAGGAUCACCCAUGUA [whbob_SS_trypto A_f4] | 42.8
52 | AUAAGGUAUCUGCUUCAUGGGUGAGCAGAUACCAGCUAGGAAACUAGCCCUUGGCAGCUGCAACAUGAGGAUCACCCAUGUAAUA [(T)'-(M)'-(T1)-(T2)-(M1)-(M2)_Design2] | 142
53 | CAUUAAUUACGAAGGAGCGUCGAAAAUGGGUAAACAUGAGGAUCACCCAUGUAAAGGGAACGACAGGUAGGUCGCGUAAUUAAUG [AstromonsSSArgB#2] | 158
54 | AACAUACAAUUUUAGGUGGAUAUAAGGCGGCGAGGACCGGUACGGCCGCCACUCGCGUACAUGAGGAUCACCCAUGUCUGAAACU [Same State - Tryptophan A (Freestyle 5)] | 24.4
55 | AUCUUGUACCGUAAUACUUUACGUUGGGAUACCAGCAUGGACCCAUGCCCUUGGCAGCUUUACAUGAGGAUCACCCAUGUUGUAG [SSTheo A #28] | 39.9
56 | AAUAUUUGCCACAUGAGGAUCACCCAUGUGCGAGGACCGGUACGGCCGCCACUCGGUCGGUGGUUAAUGAAGAUAAACAAUAAUG [XTryp A #11] | 11.2
57 | GGCUAGUGCAUCGAUACCAGCUACAUGAGGAUCACCCAUGUAGGAAGGGUGGCACUCGAUAGCCCUUGGCAGCGAACACCUCCGG [Cebebion] | 16.3
58 | AGGACCAGGAUCCUCAUGUAACUGGUCCAACGAGGACCGGUACGGCCGCCACUCGAAUAAACAUGAGGAUCACCCAUGUAAUAAU [T''-M-T'-T-MS2] | 426
59 | GGGCCCGGGCGCGAGCCCGGGCCCAUUGAUACCAGUGAUAUAUGACGCCCUUGGCAGCGAAUCCUAACAUGAGGAUCACCCAUGU [5.H] | 37.1
60 | GGACUAACCAGAAGGAGCGACACGCAGAAACUGCAAAUUCCUCCGCACGAGGAUCACCCGUGUCAGGUAGGUCGCUGGUUAGUCG [ArgBX 28] | 22.4

Reference: the supplement of paper PMC9170038
